From publication PMC2807407 (Molecular cell, 2009) come the findings set out here.

B1: Dsk2-UBL (domain or fragment, Saccharomyces cerevisiae)
chain: MSLNIHIKSGQDKWEVNVAPESTVLQFKEAINKANGIPVANQRLIYSGKILKDDQTVESYHIQDGHSVHLVKSQP
B2: Rpn10 C-terminal construct Rpn10_(204-268) (domain or fragment, Saccharomyces cerevisiae, UniProt P38886 204-268, looked up)
chain: GSGGDSDANGTFMDFGVDPSMDPELAMALRLSMEEEQQRQERLRQQQQQQDQPEQSEYPEQHQDK

Assay [1] concerns the target B2. The assay can be described thus: NMR titration.
In assay [2] the target is T1, Dsk2-UBL D64K (Saccharomyces cerevisiae, UniProt P48510 1-75, D64K).
T1 sequence: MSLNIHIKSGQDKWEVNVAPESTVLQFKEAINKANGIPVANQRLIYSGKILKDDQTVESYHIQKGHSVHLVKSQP
The assay can be described thus: NMR titration.

The target of assay [3] is B1. The experiment in a line: NMR titration.
Assay [4] deals with T1, Dsk2-UBL D64K. The experiment in a line: SPR.
A further assay addresses T2, Dsk2 (full length) (Saccharomyces cerevisiae, UniProt P48510 1-373).
T2 sequence (looked up): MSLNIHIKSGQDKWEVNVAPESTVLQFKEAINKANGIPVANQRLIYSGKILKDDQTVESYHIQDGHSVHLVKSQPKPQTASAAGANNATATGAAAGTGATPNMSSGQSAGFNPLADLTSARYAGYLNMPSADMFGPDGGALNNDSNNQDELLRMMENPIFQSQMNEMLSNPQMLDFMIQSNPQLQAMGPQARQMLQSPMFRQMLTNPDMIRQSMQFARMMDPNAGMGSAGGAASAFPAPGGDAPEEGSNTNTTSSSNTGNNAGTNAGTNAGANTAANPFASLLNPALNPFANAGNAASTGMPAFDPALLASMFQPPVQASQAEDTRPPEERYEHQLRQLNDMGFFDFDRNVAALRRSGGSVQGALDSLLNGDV
The assay can be described thus: SPR.

The target of assay [5] is B1. The assay can be described thus: SPR.

Usually stoichiometry N stands for the number of molecules, sites or subunits per partner or assembly. As to B1, the “stoichiometry N” value in assay [1] was determined as 1.

The term Kd denotes the free concentration of one partner at which half of the binding sites on the other are occupied at equilibrium, for simple one-to-one binding. Higher therefore signals lower affinity. As to B2, the dissociation constant (Kd) in the assay with Dsk2-UBL D64K [2] is 39 ± 17 µM; with Dsk2-UBL [3], 3.5 ± 0.7 µM; with Dsk2-UBL D64K [4] it was 31.8 µM; in the assay with Dsk2 (full length) it was 12.5 µM; with Dsk2-UBL [5], 9 µM.
